Biological target: the molecule itself
Test: SDS-PAGE + SEC

B1: Rat artemin (113 amino acids) (ligand, UniProt Q6AYE8 112-224, looked up)
chain: AGTRSSRARATDARGCRLRSQLVPVSALGLGHSSDELIRFRFCSGSCRRARSPHDLSLASLLDAGALRSPPGSRPISQPCCRPTRYEAVSFMDVNSTWRTVDHLSATACGCLG
stoichiometry N: 2

Reference: paper PMC3936608 (Pain, 2013)
